Results taken from the supplement of paper PMC9170038.

System: MS2 coat protein
Assay: apparent KD of MS2 coat protein; designed switch direction (-1 OFF switch, 1 ON switch): -1; higher = weaker reporter binding
Summary of the method: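 The apparent KD reported per design is the median over clusters of curve fits to normalised cluster fluorescence. The RNA switches were transcribed on Illumina chips by stalled E. coli RNA polymerase. SNAP-549-labelled MS2 coat protein was titrated from 0.7 or 1.5 nM, doubling up to 3 µM, in Tris-HCl pH 7.5 buffer containing KCl, MgCl2, BSA, DTT, tRNA and Tween-20, with no input, 200 uM small-molecule ligand, or an oligonucleotide input.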

[1] = Eterna round: R95, input ligand: microRNA oligo, concentration not stated
[2] = Eterna round: R95, input ligand: FMN 200 uM
[3] = Eterna round: R95, input ligand: none
[4] = input ligand: microRNA oligo, concentration not stated

Sequence | apparent KD of MS2 coat protein (input ligand: FMN 200 uM) [nM] | apparent KD of MS2 coat protein (input ligand: none) [nM] | apparent KD of MS2 coat protein [1] [nM] | apparent KD of MS2 coat protein [2] [nM] | apparent KD of MS2 coat protein [3] [nM] | apparent KD of MS2 coat protein [4] [nM]
GCAAGCUUUAUCAAUAAGAACAUGAGGAUCACCCAUGUAUAAGGUAUUACUUUUGGGCUCUUUAGUGCUCGUCUUAU [JR_STOV1_Sub034] (Eterna round: R97, puzzle: Sensor, turn-off variant 1) | 47.4 | 51.5 | – | – | – | –
UUUUUACAUGAGGAUCACCCAUGUCAGGAUAUGAUUAUAUUUUAUUAUUUUAUUUUUUUCAGAAGGGACUAUUA [My solution] (puzzle: Exclusion 1) | – | – | 80.6 | – | – | –
AUCCUUAACAAGGAUAUCGGGCGGGAAAUUGUUUGAGAAGGUGUAACAUGAGGAUCACCCAUGUGGCGCGUGGA [-20.8, -18.9 kcal, A 28%] (Eterna round: R97, puzzle: Exclusion 6) | 54.6 | 56.6 | – | – | – | –
AGUACUAACACGAUAGUGUUAGUACUAUAAGCUUGUGUUACAUGAGGAUCACCCAUGUCCUCAUAAGCUCGUCUUAG [Mat - Sensor v3 - Turn-off var 2 - D66] (puzzle: Sensor v3, turn-off variant 2) | – | – | 83.2 | 39.8 | 41.6 | –
GAAAACGGAGAGGAUAUUUGAGAUCAAAGCUCCAAAGAAGGCUCCACAUGAGGAUCACCCAUGUGGUCUUCAAG [Mat - Exclusion 6 - JL Mod - D14] (Eterna round: R97, puzzle: Exclusion 6) | 86.7 | 17 | – | – | – | –
UCAAGAAUAGGAUAUACAACAUGCCCGCUUCUUUGCAUCGCACAUGAGGAUCACCCAUGUAGAAGGGUUCUCUA [Exclusion-2-#16] (Eterna round: R97, puzzle: Exclusion 2) | 103 | 151 | – | – | – | –
AAGAUGCCAAAGGAUAUCGAAGGAGUGGCGCGGCGAGAAGGUUGGACAUGAGGAUCACCCAUGUGGUGGCUCCC [Usmaarri] (Eterna round: R97, puzzle: Exclusion 6) | 703 | 1070 | – | – | – | –
UCAUGUCCGGAGGAUAUGGCGCCCGUAAGGGCGCCAGAAGGCCGGACAUGAGGAUCACCCAUGUCGGCCUUCCC (Eterna round: R97, puzzle: Exclusion 6) | 22.1 | 28.4 | – | – | – | –
UUUAAUUUUUUUUUUUUACAAGCUUUUUGCUCGUCUUAUACAUGAGGAUCACCCAUGUAGGUGGAGGAUAAAUUAUC [JMF 36] (puzzle: Sensor v3, turn-off variant 2) | – | – | 56.1 | 23.5 | 25.5 | –
UGUGUUUUUGUGAGGAUAUACUGUUUGUUUUGUUUGUAGAAGGUACAUGAGGAUCACCCAUGUUGUGUUUGGUU [JR_BME4_Sub032] (puzzle: Brourd's mod of Exclusion 4) | – | – | 30.9 | – | – | –
CUUUGAUGAGGAUAUCGAGGUUAGUACAUGAGGAUCACCCAUGUUAUCCAGGUGUCGGUUCGAGAAGGUAUUGGAC [LRO-Ex5-17] (puzzle: Exclusion 5) | – | – | 15.6 | – | – | –
ACGCAUUGCCUUUGGUAGUGCGUAACAUGAGGAUCACCCAUGUAGGAUAUGGUAGGCUUUGCUUACCAGAAGGACAUAAUAAUA [Mat - Exclusion NG 3 - Mod of JL - D1] (Eterna round: R96, puzzle: Exclusion NG 3) | 54.2 | 26.6 | – | – | – | 22.7
UUUAGUUCAGGAUAUGAUGAAAUUAACAUGAGGAUCACCCAUGUAGAUCCUGAAUUAACAUCAGAAGGGAACAUUU [JL-ex5-4.44 Brourd mod] (Eterna round: R97, puzzle: Exclusion 5) | 57.8 | 10.8 | – | – | – | –
UGUCAGAUGGUAGGAUAUCCAUAUCGAGUGUCCCUUUCCUAACAUGAGGAUCACCCAUGUCGGUGGGAGAAGGGCCGUAUGGUG [salish99_ExNG02_R04_034] (Eterna round: R96, puzzle: Exclusion NG 2) | 12.5 | 14.1 | – | – | – | 11.5
AGCGAGGUAGGAUAUACAUGAGGAUCACCCAUGUGCUUGUAUGGCGUGGAACAUCGUAGUAGAAGGGCCGCGCC [EX3 #76] (Eterna round: R97, puzzle: Exclusion 3) | 21.9 | 20.9 | – | – | – | –
UUCCUCAUAACAUGAGGAUCACCCAUGUAUUAUUUGAUAACUGAGGAUAUACUAAUAAUGUUUAUGUAGAAGGCAGAUACAGAU [JR_ExcNG3_Sub015] (Eterna round: R96, puzzle: Exclusion NG 3) | 623 | 59.1 | – | – | – | 69.1
UGGCUACAUGAGGAUCACCCAUGUCAGGAUAUGCCGUUAAAUUGACAUCAACGUACGGGUAGAAGGGACUGCGU [1st #8] (Eterna round: R97, puzzle: Exclusion 1) | 43.2 | 45.6 | – | – | – | –

Sequence | apparent KD of MS2 coat protein (input ligand: FMN 200 uM) [nM] | apparent KD of MS2 coat protein (input ligand: none) [nM] | apparent KD of MS2 coat protein [1] [nM] | apparent KD of MS2 coat protein [2] [nM] | apparent KD of MS2 coat protein [3] [nM] | apparent KD of MS2 coat protein [4] [nM]
ACAAGCUUUUGGAUUUUCAACAUGAGGAUCACCCAUGUUCGUCUUAUGCGAGUGCGAGUGCGGUGUACUCGUAUUAG [JL TOV1 3.86 sellena mod] (Eterna round: R97, puzzle: Sensor, turn-off variant 1) | 25.3 | 24.4 | – | – | – | –
UCUCGCGGGCAAGGAUAUCCCACGCUGUUCUGGCCCGUGUCUGUUACAUGAGGAUCACCCAUGUGGGAGAAGGUGCACCAGGGC [Design 43] (Eterna round: R96, puzzle: Exclusion NG 2) | 30.9 | 29.4 | – | – | – | 16.8
GUGUAGAUAGGAUAUACAUGAGGAUCACCCAUGUGAAUAAGAUAGAAUAAGAUAAAGUGUAGAAGGGUUAGUGU [Excluse me!!! 19 - Jieux - Exclusion 3] (puzzle: Exclusion 3) | – | – | 30.2 | 34.3 | 39.9 | –
AGUACUAACACGAAAGUGUUAGUACAAUAAGCUUGUGAAACAUGAGGAUCACCCAUGUCCUCAUAAGCUCGUCUUAG [salish99_TOv2_r3_003] (puzzle: Sensor v3, turn-off variant 2) | – | – | 280 | 16.4 | 15.4 | –
AGUUGCGCAGGAUAUACAUGAGGAUCACCCAUGUGAGAGAAAUAAGUGAGGAAGAAAAGUAGAAGGGCGUGACA [Mat - Exclusion 3 - Mod of Salish D74] (puzzle: Exclusion 3) | – | – | 40.6 | 236 | 47.1 | –
GGGCGGCGGACCGUGGCUUUUUGCUCGUCUUAUGCUUCGACAUGAGGAUCACCCAUGUGGUGGUGGUCCGUUGUGGG [Grok-var2-13 mod JAL] (puzzle: Sensor v3, turn-off variant 2) | – | – | 15.5 | 18.4 | 20.8 | –
UUUUAACAUGAGGAUCACCCAUGUGAGGAUAUCGAAAUUUAUAUUAAUAUUAAUUUUUCGAGAAGGCACAUUUU [JMF 33] (puzzle: Exclusion 1) | – | – | 143 | – | – | –
ACUUAUAGAGGAUAUACAGUAUAUUACAUGAGGAUCACCCAUGUUCUUCAAUGUAUAUAUGUAGAAGGCUAAGGAA [EX-5 Malc#6] (puzzle: Exclusion 5) | – | – | 183 | – | – | –
GUAGAGUGAGGAUAUACGAGAUCGAUAGAUCGGCGAUCCAUACAUGAGGAUCACCCAUGUAGAAGGCACUCUAC [Mat - Exclusion 2 - Eli Mod - D2] (Eterna round: R97, puzzle: Exclusion 2) | 625 | 29.3 | – | – | – | –
AACCUGAGGCUUUGCUUUAGGUGUACAUGAGGAUCACCCAUGUAGGAUAUGGUAGGCAAAGCUUACCAGAAGGACAUGUUAAUU [Mat - Exclusion NG 3 - Mod of JL - D37] (Eterna round: R96, puzzle: Exclusion NG 3) | 122 | 59.3 | – | – | – | 44.3
ACAUGUCAUCGAGGAUAUUGGACACAUGAGGAUCACCCAUGUACCCGGAGGCUCUACUAUGAGUUCGAGAAGGCGAUGUACAUG [Ex NG2 #74] (Eterna round: R96, puzzle: Exclusion NG 2) | 169 | 25.6 | – | – | – | 19.5
AGUCGUAAACAAGUUUCUGACAUGAGGAUCACCCAUGUGAGACUAAAAGUAUCAGAUUGCCUAAUAAGUAGCUCGUC [Eternabot (L2) Solution 29] (Eterna round: R97, puzzle: Sensor, turn-off variant 1) | 20.6 | 23.5 | – | – | – | –
CGUACUGAAGUUAGGAUAUUGUCUCGGAUACGAAACAAGAAGGGACAUGAGGAUCACCCAUGUAGACAGUACGA [Malc #30 mod 4] (puzzle: Brourd's mod of Exclusion 4) | – | – | 27.1 | 24.7 | 27.7 | –
GCCUACAGAGGAUAUACAAAUGUAUGAAACCUGUUUAGACGACAUGAGGAUCACCCAUGUAGAAGGCUGUGGGC [Eternabot (L1) Solution 85] (Eterna round: R97, puzzle: Exclusion 2) | 285 | 37.5 | – | – | – | –
ACACUGCGAGGAUAUACAUGAGGAUCACCCAUGUAUCGGUAGACAAGGUUAAUUUAAGGUAGAAGGCGCGUAUU [JR_Ex3_Sub008] (Eterna round: R97, puzzle: Exclusion 3) | 36.9 | 29.1 | – | – | – | –
GUCACUAGAGGAUAUACAAUGGUAUAUGAUCCUAGUGACAAACAUGAGGAUCACCCAUGUAGAAGGCUAGUAAA [Exclusion 2 - 2] (puzzle: Exclusion 2) | – | – | 28.3 | 24.5 | 28 | –
GCUGUAGAAGGAUAUGCUUCGACUCACAUGAGGAUCACCCAUGUCUUCGUGCAGUCGUCUGCAGAAGGUCUCCAGU [EX5 C.8] (Eterna round: R97, puzzle: Exclusion 5) | 1820 | 504 | – | – | – | –
